To fix the notation:
B1: Homeobox protein cut-like 1, residues 941 to 1008; numbered along this chain, P39880 (parent)
chain: QEVDTIELTRQVKEKLAKNGICQRIFGEKVLGLSQGSVSDMLSRPKPWSKLTQKGREPFIRMQLWLNG

± gives the uncertainty stated by the source.

Variants of B1 are the subject of the data set. The data set can be described thus: abundance fitness (aPCA) (normalised: wild type 0, dead -1); higher = more abundant; growth selection in yeast, the domain comes from the species named. To be noted: Homo sapiens.
As for QEVDTIELTRQVKEKLAKNGICQRIFGEKVLGLSQGSVSDMLSRPKPWSKLTQKGREPFIRMQLWCNG [L66C], the abundance fitness was -0.499 ± 0.13. The value for QEVDTIELTRQVKEKLAKNGICQRIFGEKVLGLSQGSVSDMLSRPKPWSKLTQKGREPFIRMQLWNNG [L66N] was -0.568 ± 0.11.

Take QEVDTIELTRQVKEKLAKNGICQRIFGEKVLGLSQGSVSDMLSRPKPWSKLTQKGREPFIRMQLWSNG [L66S]: the abundance fitness is -0.82 ± 0.072.

As to QEVDTIELTRQVKEKLAKNGICQRIFGEKVLGLSQGSVSDMLSRPKPWSKLTQKGREPFIRMQLWPNG [L66P], the abundance fitness was -0.959 ± 0.091.

As for QEVDTIELTRQVKEKLAKNGICQRIFGEKVLGLSQGSVSDMLSRPKPWSKLTQKGREPFIRMQLWENG [L66E], the abundance fitness is -0.909 ± 0.15.

Take QEVDTIELTRQVKEKLAKNGICQRIFGEKVLGLSQGSVSDMLSRPKPWSKLTQKGREPFIRMQLWING [L66I]: the abundance fitness is -0.166 ± 0.083. The value for QEVDTIELTRQVKEKLAKNGICQRIFGEKVLGLSQGSVSDMLSRPKPWSKLTQKGREPFIRMQLWDNG [L66D] was -1.21 ± 0.33; that for QEVDTIELTRQVKEKLAKNGICQRIFGEKVLGLSQGSVSDMLSRPKPWSKLTQKGREPFIRMQLWKNG [L66K] was -0.63 ± 0.084. QEVDTIELTRQVKEKLAKNGICQRIFGEKVLGLSQGSVSDMLSRPKPWSKLTQKGREPFIRMQLWMNG [L66M]: the abundance fitness was -0.244 ± 0.073. Consider QEVDTIELTRQVKEKLAKNGICQRIFGEKVLGLSQGSVSDMLSRPKPWSKLTQKGREPFIRMQLWANG [L66A], for which the abundance fitness was -0.62 ± 0.089. Regarding QEVDTIELTRQVKEKLAKNGICQRIFGEKVLGLSQGSVSDMLSRPKPWSKLTQKGREPFIRMQLWWNG [L66W], the abundance fitness was -0.35 ± 0.068. Regarding QEVDTIELTRQVKEKLAKNGICQRIFGEKVLGLSQGSVSDMLSRPKPWSKLTQKGREPFIRMQLWQNG [L66Q], the abundance fitness is -1.17 ± 0.15. As to QEVDTIELTRQVKEKLAKNGICQRIFGEKVLGLSQGSVSDMLSRPKPWSKLTQKGREPFIRMQLWYNG [L66Y], the abundance fitness was -0.762 ± 0.091. In the case of QEVDTIELTRQVKEKLAKNGICQRIFGEKVLGLSQGSVSDMLSRPKPWSKLTQKGREPFIRMQLWVNG [L66V], the abundance fitness is -0.223 ± 0.061. Take QEVDTIELTRQVKEKLAKNGICQRIFGEKVLGLSQGSVSDMLSRPKPWSKLTQKGREPFIRMQLWTNG [L66T]: the abundance fitness is -0.8 ± 0.075. On to QEVDTIELTRQVKEKLAKNGICQRIFGEKVLGLSQGSVSDMLSRPKPWSKLTQKGREPFIRMQLWGNG [L66G], for which the abundance fitness was -0.884 ± 0.09.

QEVDTIELTRQVKEKLAKNGICQRIFGEKVLGLSQGSVSDMLSRPKPWSKLTQKGREPFIRMQLNLNG [W65N]: the abundance fitness was -1.45 ± 0.3. With QEVDTIELTRQVKEKLAKNGICQRIFGEKVLGLSQGSVSDMLSRPKPWSKLTQKGREPFIRMQLMLNG [W65M], the abundance fitness is -0.744 ± 0.08. With QEVDTIELTRQVKEKLAKNGICQRIFGEKVLGLSQGSVSDMLSRPKPWSKLTQKGREPFIRMQLGLNG [W65G], the abundance fitness is -1.01 ± 0.1. Consider QEVDTIELTRQVKEKLAKNGICQRIFGEKVLGLSQGSVSDMLSRPKPWSKLTQKGREPFIRMQLILNG [W65I], for which the abundance fitness is -1.3 ± 0.21. For QEVDTIELTRQVKEKLAKNGICQRIFGEKVLGLSQGSVSDMLSRPKPWSKLTQKGREPFIRMQLPLNG [W65P] the value was -1.22 ± 0.15; for QEVDTIELTRQVKEKLAKNGICQRIFGEKVLGLSQGSVSDMLSRPKPWSKLTQKGREPFIRMQLYLNG [W65Y], -0.309 ± 0.11; for QEVDTIELTRQVKEKLAKNGICQRIFGEKVLGLSQGSVSDMLSRPKPWSKLTQKGREPFIRMQLALNG [W65A], -0.666 ± 0.064. Consider QEVDTIELTRQVKEKLAKNGICQRIFGEKVLGLSQGSVSDMLSRPKPWSKLTQKGREPFIRMQLQLNG [W65Q], for which the abundance fitness was -1.24 ± 0.21. With QEVDTIELTRQVKEKLAKNGICQRIFGEKVLGLSQGSVSDMLSRPKPWSKLTQKGREPFIRMQLKLNG [W65K], the abundance fitness was -0.715 ± 0.088.

Take QEVDTIELTRQVKEKLAKNGICQRIFGEKVLGLSQGSVSDMLSRPKPWSKLTQKGREPFIRMQLELNG [W65E]: the abundance fitness was -0.968 ± 0.12.

On to QEVDTIELTRQVKEKLAKNGICQRIFGEKVLGLSQGSVSDMLSRPKPWSKLTQKGREPFIRMQLTLNG [W65T], for which the abundance fitness is -1.31 ± 0.17. The value for QEVDTIELTRQVKEKLAKNGICQRIFGEKVLGLSQGSVSDMLSRPKPWSKLTQKGREPFIRMQLHLNG [W65H] was -0.864 ± 0.28.

On to QEVDTIELTRQVKEKLAKNGICQRIFGEKVLGLSQGSVSDMLSRPKPWSKLTQKGREPFIRMQLDLNG [W65D], for which the abundance fitness was -0.994 ± 0.15. For QEVDTIELTRQVKEKLAKNGICQRIFGEKVLGLSQGSVSDMLSRPKPWSKLTQKGREPFIRMQLCLNG [W65C], the abundance fitness is -0.718 ± 0.12.

For the variant QEVDTIELTRQVKEKLAKNGICQRIFGEKVLGLSQGSVSDMLSRPKPWSKLTQKGREPFIRMQLRLNG [W65R], the abundance fitness is -0.76 ± 0.081. For QEVDTIELTRQVKEKLAKNGICQRIFGEKVLGLSQGSVSDMLSRPKPWSKLTQKGREPFIRMQLFLNG [W65F], the abundance fitness was -0.326 ± 0.095. Take QEVDTIELTRQVKEKLAKNGICQRIFGEKVLGLSQGSVSDMLSRPKPWSKLTQKGREPFIRMQQWLNG [L64Q]: the abundance fitness came to 0.144 ± 0.082. As to QEVDTIELTRQVKEKLAKNGICQRIFGEKVLGLSQGSVSDMLSRPKPWSKLTQKGREPFIRMQKWLNG [L64K], the abundance fitness came out at 0.158 ± 0.064. Take QEVDTIELTRQVKEKLAKNGICQRIFGEKVLGLSQGSVSDMLSRPKPWSKLTQKGREPFIRMQIWLNG [L64I]: the abundance fitness was -0.195 ± 0.12.

Turning to QEVDTIELTRQVKEKLAKNGICQRIFGEKVLGLSQGSVSDMLSRPKPWSKLTQKGREPFIRMQGWLNG [L64G], the abundance fitness is -0.074 ± 0.06. For QEVDTIELTRQVKEKLAKNGICQRIFGEKVLGLSQGSVSDMLSRPKPWSKLTQKGREPFIRMQPWLNG [L64P] the value was -0.562 ± 0.074; for QEVDTIELTRQVKEKLAKNGICQRIFGEKVLGLSQGSVSDMLSRPKPWSKLTQKGREPFIRMQFWLNG [L64F], -0.326 ± 0.099. With QEVDTIELTRQVKEKLAKNGICQRIFGEKVLGLSQGSVSDMLSRPKPWSKLTQKGREPFIRMQSWLNG [L64S], the abundance fitness is 0.068 ± 0.058.

The values above are taken from the Human Domainome abundance scans (Beltran et al. 2025).
